According to paper PMC8202958 (Cell reports, 2021):
Changes are numbered by the printed parent chain.

Experiments:
Assay in all cases: pull-down
GST-Sla1(1–420aa) = biological target: T1, GST-Sla1(1–420aa) (S. cerevisiae, UniProt P32790 1-420)
T1 sequence (looked up): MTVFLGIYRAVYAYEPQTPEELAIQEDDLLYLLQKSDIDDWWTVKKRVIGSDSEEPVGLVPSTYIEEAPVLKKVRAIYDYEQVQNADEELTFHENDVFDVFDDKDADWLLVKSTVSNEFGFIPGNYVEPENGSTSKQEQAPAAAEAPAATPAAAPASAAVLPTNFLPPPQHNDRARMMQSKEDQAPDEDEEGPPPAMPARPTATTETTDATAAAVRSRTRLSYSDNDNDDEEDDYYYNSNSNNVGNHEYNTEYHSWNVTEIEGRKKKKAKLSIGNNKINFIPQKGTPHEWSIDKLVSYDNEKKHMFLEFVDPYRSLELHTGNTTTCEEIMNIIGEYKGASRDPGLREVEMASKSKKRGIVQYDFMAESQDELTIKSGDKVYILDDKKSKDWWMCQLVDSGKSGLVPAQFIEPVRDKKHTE

GST-Sla1(1–420aa, W41S) = biological target: T2, GST-Sla1(1–420aa, W41S) (S. cerevisiae, UniProt P32790 1-420, W41S)
T2 sequence (looked up): T1 sequence (looked up) with W41S

GST-Lsb3 = biological target: T3, GST-Lsb3 (S. cerevisiae, UniProt P43603 1-459)
T3 sequence (looked up): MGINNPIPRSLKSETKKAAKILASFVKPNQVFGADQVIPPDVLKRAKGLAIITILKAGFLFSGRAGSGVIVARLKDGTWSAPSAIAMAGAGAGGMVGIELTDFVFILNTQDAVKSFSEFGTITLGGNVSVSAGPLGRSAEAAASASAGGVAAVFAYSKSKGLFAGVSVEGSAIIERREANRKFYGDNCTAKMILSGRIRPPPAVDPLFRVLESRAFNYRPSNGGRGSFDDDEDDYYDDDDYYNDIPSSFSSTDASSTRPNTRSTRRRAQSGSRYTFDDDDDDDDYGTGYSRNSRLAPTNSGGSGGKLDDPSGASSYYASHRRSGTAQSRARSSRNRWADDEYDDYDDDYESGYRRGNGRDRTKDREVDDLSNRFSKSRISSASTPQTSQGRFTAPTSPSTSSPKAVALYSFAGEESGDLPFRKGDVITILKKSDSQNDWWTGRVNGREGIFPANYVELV

GST-Sla1(1–420aa, W108S) = biological target: T4, GST-Sla1(1–420aa, W108S) (S. cerevisiae, UniProt P32790 1-420, W108S)
T4 sequence (looked up): T1 sequence (looked up) with W108S

GST-Ysc84 = biological target: T5, GST-Ysc84 (S. cerevisiae, UniProt P32793 1-468)
T5 sequence (looked up): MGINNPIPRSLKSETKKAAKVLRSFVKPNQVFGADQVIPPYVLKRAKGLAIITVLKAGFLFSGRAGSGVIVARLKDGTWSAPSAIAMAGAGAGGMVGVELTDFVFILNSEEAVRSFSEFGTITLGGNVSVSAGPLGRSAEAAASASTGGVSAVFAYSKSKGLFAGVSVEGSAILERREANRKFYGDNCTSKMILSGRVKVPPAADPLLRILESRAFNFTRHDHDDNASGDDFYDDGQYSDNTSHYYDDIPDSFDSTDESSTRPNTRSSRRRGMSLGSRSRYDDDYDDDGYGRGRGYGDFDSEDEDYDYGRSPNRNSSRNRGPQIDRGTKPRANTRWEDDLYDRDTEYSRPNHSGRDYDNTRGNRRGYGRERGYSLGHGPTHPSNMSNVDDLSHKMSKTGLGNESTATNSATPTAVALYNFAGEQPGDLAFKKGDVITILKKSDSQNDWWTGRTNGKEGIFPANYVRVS

Measured: binding result

B1: MBP-Ecm25-C-term (361–599aa) (domain or fragment, S. cerevisiae, UniProt P32525 361-599, looked up)
chain: EISSPPSSVSSSSTIPVLPKPRKSSPTRYSELGCLTLPRSRSPSPQRSVTSPTYTPVALQNTPVLKPKSSSRNVSSPSFNAKPPLPIKAVTRPQLSLTSNSNTDLALASSSTDTLSSPTKTPSADSLPLSNSSTDLTISDNIKEMVKDEPAKDKNSVETDIFVQQFESLTLVQNAKIKKFDKELQEKKKKNETTSKTADKFSQKGYSDIKASNKVSRLAALYEERLQGLQVMNEMKQRW
binds: all assays above

B2: MBP-Ecm25(361–535aa) (domain or fragment, S. cerevisiae, UniProt P32525 361-535, looked up)
chain: EISSPPSSVSSSSTIPVLPKPRKSSPTRYSELGCLTLPRSRSPSPQRSVTSPTYTPVALQNTPVLKPKSSSRNVSSPSFNAKPPLPIKAVTRPQLSLTSNSNTDLALASSSTDTLSSPTKTPSADSLPLSNSSTDLTISDNIKEMVKDEPAKDKNSVETDIFVQQFESLTLVQNA
binds: all assays above
